Paper PMC12292245, “Probing the Active Site of Class 3 L-Asparaginase by Mutagenesis: Mutations of the Ser-Lys Tandems of ReAV” (Biomolecules, 2025)

B1: ReAV R47A mutant (Rhizobium etli Class 3, type V L-asparaginase) (enzyme)
chain: MTPSEDFVVTDRGGIVENSHRVHAAVVDAKGRLLYALGNPTRMTLAASAAKPAQALAILETEGVAGYGFDDADIALMCASHSSEDRHIARTRAMLSKIKAEEADLRCGGHPSLSEMVNRSWIKQDFIPTAVCSNCSGKHVGMLAGARAIGAGTDGYHLPDHPMQGRVKRTVAELCDLDAGDVEWGTDGCNLPTPAFPLDRLGRIYAKLASAADGSDAGEGQSTRCAALAHIFRAMARHPEMVAGEGRYCTMLMRAFDGALVGKLGADASYAIGVRASDATRQLGTDGALGISVKIEDGNLEMLYAVVTELLERLGIGSPDVRSQLASFHHPQRVNTMGVTTGGVSFPFKLRGSKSNVDDPRLAAVAR
notes: ReAV, inducible thermolabile type V L-asparaginase of Rhizobium etli; Homodimer; source: E. coli BL21-Gold (DE3), purified (HisTrap, TEV digestion, second HisTrap, Superdex 200)
B2: ReAV K263A mutant (Rhizobium etli Class 3, type V L-asparaginase) (enzyme)
chain: MTPSEDFVVTDRGGIVENSHRVHAAVVDAKGRLLYALGNPTRMTLARSAAKPAQALAILETEGVAGYGFDDADIALMCASHSSEDRHIARTRAMLSKIKAEEADLRCGGHPSLSEMVNRSWIKQDFIPTAVCSNCSGKHVGMLAGARAIGAGTDGYHLPDHPMQGRVKRTVAELCDLDAGDVEWGTDGCNLPTPAFPLDRLGRIYAKLASAADGSDAGEGQSTRCAALAHIFRAMARHPEMVAGEGRYCTMLMRAFDGALVGALGADASYAIGVRASDATRQLGTDGALGISVKIEDGNLEMLYAVVTELLERLGIGSPDVRSQLASFHHPQRVNTMGVTTGGVSFPFKLRGSKSNVDDPRLAAVAR
modifications: Cys249 chemically modified, modeled as S-hydroxycysteine
notes: ReAV, inducible thermolabile type V L-asparaginase of Rhizobium etli; Homodimer; Zn2+ at occupancy 0.8 in the crystal; source: E. coli BL21-Gold (DE3), purified (HisTrap, TEV digestion, second HisTrap, Superdex 200)
B3: ReAV S48A mutant (Rhizobium etli Class 3, type V L-asparaginase) (enzyme)
chain: MTPSEDFVVTDRGGIVENSHRVHAAVVDAKGRLLYALGNPTRMTLARAAAKPAQALAILETEGVAGYGFDDADIALMCASHSSEDRHIARTRAMLSKIKAEEADLRCGGHPSLSEMVNRSWIKQDFIPTAVCSNCSGKHVGMLAGARAIGAGTDGYHLPDHPMQGRVKRTVAELCDLDAGDVEWGTDGCNLPTPAFPLDRLGRIYAKLASAADGSDAGEGQSTRCAALAHIFRAMARHPEMVAGEGRYCTMLMRAFDGALVGKLGADASYAIGVRASDATRQLGTDGALGISVKIEDGNLEMLYAVVTELLERLGIGSPDVRSQLASFHHPQRVNTMGVTTGGVSFPFKLRGSKSNVDDPRLAAVAR
notes: ReAV, inducible thermolabile type V L-asparaginase of Rhizobium etli; Homodimer; Zn2+ at occupancy 0.7 in the crystal; source: E. coli BL21-Gold (DE3), purified (HisTrap, TEV digestion, second HisTrap, Superdex 200)
B4: ReAV K51A mutant (in fact the double mutant K51A/H238Y; Rhizobium etli Class 3, type V L-asparaginase) (enzyme)
chain: MTPSEDFVVTDRGGIVENSHRVHAAVVDAKGRLLYALGNPTRMTLARSAAAPAQALAILETEGVAGYGFDDADIALMCASHSSEDRHIARTRAMLSKIKAEEADLRCGGHPSLSEMVNRSWIKQDFIPTAVCSNCSGKHVGMLAGARAIGAGTDGYHLPDHPMQGRVKRTVAELCDLDAGDVEWGTDGCNLPTPAFPLDRLGRIYAKLASAADGSDAGEGQSTRCAALAHIFRAMARYPEMVAGEGRYCTMLMRAFDGALVGKLGADASYAIGVRASDATRQLGTDGALGISVKIEDGNLEMLYAVVTELLERLGIGSPDVRSQLASFHHPQRVNTMGVTTGGVSFPFKLRGSKSNVDDPRLAAVAR
notes: ReAV, inducible thermolabile type V L-asparaginase of Rhizobium etli; the crystallised protein carries the unintended second mutation H238Y; Homodimer; Zn2+ at occupancy 0.5 in the crystal; source: E. coli BL21-Gold (DE3), purified (HisTrap, TEV digestion, second HisTrap, Superdex 200)
B5: ReAV S80A mutant (Rhizobium etli Class 3, type V L-asparaginase) (enzyme)
chain: MTPSEDFVVTDRGGIVENSHRVHAAVVDAKGRLLYALGNPTRMTLARSAAKPAQALAILETEGVAGYGFDDADIALMCAAHSSEDRHIARTRAMLSKIKAEEADLRCGGHPSLSEMVNRSWIKQDFIPTAVCSNCSGKHVGMLAGARAIGAGTDGYHLPDHPMQGRVKRTVAELCDLDAGDVEWGTDGCNLPTPAFPLDRLGRIYAKLASAADGSDAGEGQSTRCAALAHIFRAMARHPEMVAGEGRYCTMLMRAFDGALVGKLGADASYAIGVRASDATRQLGTDGALGISVKIEDGNLEMLYAVVTELLERLGIGSPDVRSQLASFHHPQRVNTMGVTTGGVSFPFKLRGSKSNVDDPRLAAVAR
modifications: Cys249 most likely oxidized, modeled as cysteinesulfinic acid
notes: ReAV, inducible thermolabile type V L-asparaginase of Rhizobium etli; Homodimer; source: E. coli BL21-Gold (DE3), purified (HisTrap, TEV digestion, second HisTrap, Superdex 200); mostly in inclusion bodies, about 10 mg/L recovered from the cell lysate

Biological target: the molecule itself
Experiment: crystal structure; hanging-drop vapor diffusion at 19 °C, protein 15-21 mg/mL with 0.5-1% v/v DDM; data at 100 K; molecular replacement with WT ReAV PDB 7os5; dimers in the asymmetric unit

Binding result, binds:
B1, B2, B3, B4, B5
